Laboratory results as given in patent US20070166384A1, “Methods , composition and preparations for delivery of immune response modifiers” (priority 2004, published 2007).
Values after ≈ are worked out from the molar mass of the structure shown. Each block holds one molecule with its values, some of them ahead of it.

Assays:
[1] = system: Peripheral blood mononuclear cells (PBMC); experiment: Cytokine induction in an in vitro human blood cell system (IFN-α and TNF-α secreted into culture media); assay type: cell-based; conditions: 18 to 24 hours; for Minimum Effective Concentration (µM) IFN-α: lowest tested concentration inducing IFN-α over fixed level (usually 20 pg/mL); for Minimum Effective Concentration (µM) TNF: lowest tested concentration inducing TNF-α over fixed level (usually 40 pg/mL)
Description: An in vitro human blood cell system is used to assess cytokine induction. Activity is based on the measurement of interferon (α) and tumor necrosis factor (α) (IFN-α and TNF-α, respectively) secreted into culture media as described by Testerman et. al. in “Cytokine Induction by the Immunomodulators Imiquimod and S-27609,” Journal of Leukocyte Biology, 58, 365-372 (September, 1995).
Whole blood from healthy human donors is collected by venipuncture into vacutainer tubes or syringes containing EDTA. Peripheral blood mononuclear cells (PBMC) are separated from whole blood by density gradient centrifugation using HISTOPAQUE-1077 (Sigma, St. Louis, Mo.) or Ficoll-Paque Plus (Amersham Biosciences Piscataway, N.J.). Blood is diluted 1:1 with Dulbecco's Phosphate Buffered Saline (DPBS) or Hank's Balanced Salts Solution (HBSS). Alternately, whole blood is placed in Accuspin (Sigma) or LeucoSep (Greiner Bio-One, Inc., Longwood, Fla.) centrifuge frit tubes containing density gradient medium. The PBMC layer is collected and washed twice with DPBS or HBSS and re-suspended at 4×10^6 cells/mL in RPMI complete. The PBMC suspension is added to 96 well flat bottom sterile tissue culture plates containing an equal volume of RPMI complete media containing test compound.
The compounds are solubilized in dimethyl sulfoxide (DMSO). The DMSO concentration should not exceed a final concentration of 1% for addition to the culture wells. The compounds are generally tested at concentrations ranging from 30-0.014 μM. Controls include cell samples with media only, cell samples with DMSO only (no compound), and cell samples with reference compound. […]
Following incubation the plates are centrifuged for 10 minutes at 1000 rpm (approximately 200×g) at 4° C. […] The samples are analyzed for IFN-α by ELISA and for TNF-α by IGEN/BioVeris Assay.
IFN-α concentration is determined with a human multi-subtype calorimetric sandwich ELISA (Catalog Number 41105) from PBL Biomedical Laboratories, Piscataway, N.J. Results are expressed in pg/mL.
The TNF-α concentration is determined by ORIGEN M-Series Immunoassay and read on an IGEN M-8 analyzer from BioVeris Corporation, formerly known as IGEN International, Gaithersburg, Md. […]
Analysis of the data has two steps. First, the greater of the mean DMSO (DMSO control wells) or the experimental background (usually 20 pg/mL for IFN-α and 40 pg/mL for TNF-α) is subtracted from each reading. If any negative values result from background subtraction, the reading is reported as
“*”, and is noted as not reliably detectable. […] The adjustment ratio is the area of the reference compound in the new experiment divided by the expected area of the reference compound based on the past 61 experiments (unadjusted readings). […]

[2] = Solubility in normal saline and phosphate buffered saline (saturated solutions, 25° C., 7 days, HPLC); assay type: physicochemical; conditions: for Solubility Fold Increase: Example 6 over IRM2; for solubility at 7 days: thermodynamic from solid
Experimental: The solubility of IRM2 and the IRM-polymer complex exemplified in Example 6 was determined in normal saline and phosphate buffered saline (PBS) at pH 7.4. Each compound was added to each medium until saturation had been reached. Vials containing the saturated solutions were capped and placed into a shaking water bath at 25° C. After 7 days the saturated solutions were filtered and analyzed for compound content on an HPLC using a Zorbax Bonus-RP 150×4.6 mm 5 μm particle size column. IRM2 was eluted with a 25:75 ratio of 0.05% trifuoro-acetic acid (TFA) in Acetonitrile to 0.1% TFA in water. Example 6 was eluted with a 10:90 ratio of 0.05% TFA in Acetonitrile to 0.1% TFA in water for three minutes, gradient to a 75:25 ratio of 0.05% TFA in Acetonitrile to 0.1% TFA in water for seven minutes and held at the 75:25 ratio for eight minutes. All HPLC runs were set at a flow rate of 1 mL/min, 20 μL injection volume, and a 254 nm UV detection wavelength. Quantitation was performed against external standards. Results are shown in Table 5 expressed in millimolar (mM) and solubility fold increase of Example 6 over IRM2.

[3] = Liberation of IRM1 from IRM-polymer complex in buffered saline at 37° C., measured by HPLC; assay type: physicochemical; conditions: 0.1 mg/ml
Experimental: Samples were placed in a thermostated autosampler with the temperature controlled at 37° C. Samples were injected periodically over the course of the experiment and the % of IRM1 liberated was measured by an HPLC system equipped with a thermostatted autosampler set at 37° C. and a Zorbax SB C18, (3.0×150 mm), 3.5 μm particle size column with a column temperature of 40° C. Samples were eluted with a mobile phase of 1% acetic acid in water and methanol. The mobile phase was run at a ratio of 55:45 of 1% acetic acid in water to methanol for five minutes, gradient to 5:95 for ten minutes, held at 5:95 for five minutes, gradient to 55:45 in less than a minute, and held at 55:45 for ten minutes. All HPLC runs were set at a flow rate of 0.5 mL/min, 20 μL injection volume, and a 254 nm UV detection wavelength. The % IRM1 was determined by normalizing the IRM1 peak area by the total peak area of the chromatogram.

[4] = normal saline, saline or isotonic, Saline, 25° C.

SMILES: CCCCc1nc2c(N)nc3ccccc3c2n1CCCCNC(=O)CCOCCOCCOCCOCCOCCOCCOCCOCCOCCOCCOCCOCCOCCOCCOCCOCCOCCOCCOCCOCCOCCOCCOCCOCCOCCOCCOCCOCCOCCOCCOCCOCCOCCOCCOCCOCCOCCOCCOCCOCCOCCOCCOCCOCCOCCOC [Example 6]
Minimum Effective Concentration (µM) IFN-α [1]: 30 µM
Minimum Effective Concentration (µM) TNF [1]: > 30 µM
Solubility Fold Increase ([2]; Phosphate Buffered Saline, pH 7.4): 75.97
Solubility Fold Increase ([2]; Saline): 142.50
solubility at 7 days ([2]; aqueous buffer, Phosphate Buffered Saline, pH 7.4, 25° C.): 5590 µM (≈ 13300 µg/mL)
solubility at 7 days [2, 4]: 5970 µM (≈ 14200 µg/mL)

SMILES: CCOCc1nc2c(NC(=O)CCOCCOCCOCCOCCOCCOCCOCCOCCOCCOCCOCCOCCOCCOCCOCCOCCOCCOCCOCCOCCOCCOCCOCCOCCOCCOCCOCCOCCOCCOCCOCCOCCOCCOCCOCCOCCOCCOCCOCCOCCOCCOCCOCCOCCOCCOC)nc3ccccc3c2n1CC(C)(C)O [Example 7]
% IRM1 ([3]; Citrate Buffered Saline, pH 4, 37° C., time 0 hr): 2.9%
% IRM1 ([3]; Citrate Buffered Saline, pH 4, 37° C., time 6 hr): 5.7%
% IRM1 ([3]; Citrate Buffered Saline, pH 4, 37° C., time 10 hr): 7.4%
% IRM1 ([3]; Citrate Buffered Saline, pH 4, 37° C., time 13 hr): 9.4%
% IRM1 ([3]; Citrate Buffered Saline, pH 4, 37° C., time 17 hr): 10.6%
% IRM1 ([3]; Citrate Buffered Saline, pH 4, 37° C., time 20 hr): 12.1%
% IRM1 ([3]; Citrate Buffered Saline, pH 4, 37° C., time 23 hr): 13.0%
% IRM1 ([3]; Citrate Buffered Saline, pH 4, 37° C., time 28 hr): 16.5%
% IRM1 ([3]; Citrate Buffered Saline, pH 4, 37° C., time 30 hr): 17.1%
% IRM1 ([3]; Phosphate Buffered Saline, pH 7.4, 37° C., time 1 hr): 1.3%
% IRM1 ([3]; Phosphate Buffered Saline, pH 7.4, 37° C., time 5 hr): 1.5%
% IRM1 ([3]; Phosphate Buffered Saline, pH 7.4, 37° C., time 10 hr): 1.7%
% IRM1 ([3]; Phosphate Buffered Saline, pH 7.4, 37° C., time 13 hr): 1.8%
% IRM1 ([3]; Phosphate Buffered Saline, pH 7.4, 37° C., time 18 hr): 1.9%
% IRM1 ([3]; Phosphate Buffered Saline, pH 7.4, 37° C., time 20 hr): 2.1%
% IRM1 ([3]; Phosphate Buffered Saline, pH 7.4, 37° C., time 23 hr): 2.1%
% IRM1 ([3]; Phosphate Buffered Saline, pH 7.4, 37° C., time 27 hr): 2.3%
% IRM1 ([3]; Phosphate Buffered Saline, pH 7.4, 37° C., time 30 hr): 2.4%
Minimum Effective Concentration (µM) IFN-α [1]: 3.33 µM
Minimum Effective Concentration (µM) TNF [1]: 30 µM

solubility at 7 days [2, 4]: 40 µM (≈ 14.1 µg/mL)
solubility at 7 days ([2]; phosphate buffered saline (PBS), aqueous buffer, Phosphate Buffered Saline, pH 7.4, 25° C.): 70 µM (≈ 24.7 µg/mL)
SMILES: CCCCc1nc2c(N)nc3ccccc3c2n1CCCCNC(C)=O [IRM 2, N-[4-(4-Amino-2-butyl-1H-imidazo[4,5-c]quinolin-1-yl)butyl]acetamide, reference compound]
